In the nanobody polyreactivity screen of Harvey et al. (2022):

Experiment: yeast display, Sf9 membrane polyspecificity reagent, FACS + sequencing; frameworks hold sequencing errors
Method in brief: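 Galactose induction of a Saccharomyces cerevisiae BJ5465 synthetic nanobody display library ran 36–48 hours. The cells were then stained for 1 hour at 4 °C with 10% biotinylated, detergent-solubilized Sf9 membrane reagent, pulled down on streptavidin microbeads and FACS-sorted into low and high (top ~1%) gates on expression and reagent-binding fluorescence. Labels for polyreactivity follow the gate of origin.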

Sequence	polyreactivity (PSR sort gate)
QVQLVESGGGLVQAGGSLRLSCAASGRTFTTYTMGWYRQAPGKERELVAAISWGGTSTYYADSVKGRFTISRDNAKNTVYLQMNSLKPDDTAVYYCNVLERGPGGPDDSWGQGTQVTVSS	low polyreactivity
QVQLVESGGGLVQAGGSLRLSCAASGRIFFFNTMGWYRQAPGKERELVARINRGGRTNYADSVKGRFTISRDNAKNTVYLQMNSLKPEDTAVYYCAADRTWYKLETTEYDYWGQGTQVTVSS	high polyreactivity
QVQLVETGGGLVQAGVSLRISCAASGRTFSVYTMGWYRQAPGKERELVAAIRGRGGSTYYADSVKGRFTISRDNAKNTVYLQMNSLKPEDTAVYYCAARASIFGATFDYWGQGTQVTVSS	high polyreactivity
QVQLVESGGGLVQAAGSLRLSFAASGSIFGRYPMGWYRQAPGKERELVAAISTGDSTYYADSVKGRFTISRDNAKNTVYLQMISLKPEDTAVYYCNRRGRRGYDYWGQGTQVTVSS	high polyreactivity
QVQLVESGGGLVQAGGSLRLSCAASGRTFPLNAMGWFRQAPGKERELVAAITWSGGRTYYADSVKGRFTISRDNAKNTVYLQMNSLKPEDTAVYYCAAKRTTWKIQSGYDYWGQGTQVTVSS	low polyreactivity
QVQLVESGGGLVQAGGSLRLTCAASGSNFQYYAMGWYRQAPGKERELVAAISSGDTTNYADSVKGRFTISRDNAKNTVYLQMNSLKPEDTAVYYCNAEGGWYDWDDYWGQGTQVTVSS	low polyreactivity
QVQLVESGGGIVQAGGSLRLSCAASGTFGYAMGWYRQAPGKERELVAAISYSGGSTYYADSVKGRFTISRDNAKNTVYLQMNSLKPEDTAVYYCAARTTLSYGYDYWGQGTQVTVSS	high polyreactivity
QVQLVESGGGLVQAGGSLRLSFAAYGRTIRWNAMGWYRQEPGKERELVAAITSRGGSTYYADSVKGRFTISRDNAKNTVYLQMNSLKPEDTAVYYCAKQPKPPPVTGYDYWGQGTQVTVSS	high polyreactivity
QVQLVESGGGLVQAGGSLRLSCAASGFTFLSYTMGWYSQAPGKERELVASITASGTRTYYADSVKGRFIISRDNAKNTVYLQMNRLKPEDTAVYYFAARWISVWSEGAEHDYWGQGTQVTVSS	low polyreactivity
QVQLVESGGGLVQAGGSLRLSCAASGFTFYTNAMGWYRQAPGKEREFVAAISWSGTGTYYADSVKGRFTISRDNAKNTVYLQMNSLKPEDTAVYYCAARDRWRGGRKFDYWGQGTQVTVSS	high polyreactivity
QDQHVESGVGLVQEGGSLPLSCASSAFIIVKYAMGWYRKAPGKERELVAAITSGGSTSYADSVKGRFTISRDNAKNTVYLQMNRLKPEDTAVYYCAASTTAYAYVNYGYWGQGTQVTVSS	low polyreactivity
QVQLVESGGGLVQAGGSLRLSCAASGFIFITVNAMGWYRQAPGKEREFVAAITRSGTGTYYADSVKGRFTISRDYAKYTVFLQMNSLKPEDTAVSYCAADATSTGAYDYWGQGTQVTVSS	low polyreactivity
QVQIVESGGGLVQAGGSLRLSCAASGSIFYYYAMGWYRQAPGKERELVAAITRSGGSTYYADSVKGRFTISRDNEKNTVYLQMNSLKPEDTAVYYCAKDAHAYRDLDYWGQGTQVTVSS	low polyreactivity
QVQLVESGGGLVQAGGSLRLSCAASGIIFYDYAMGWYRQAPGKERELVAAITSSGGSTYYADSVKGRFTISRDNAKNTVYLQMNRLKPEDTAVYYCAAATRGSGRRYDYWGQGTQVTVSS	high polyreactivity
QVQLVESGGGLVQAGGSLRLSCAASGSIFRNYAMGWYRQAPGKERELVATIRYRGGRTYADSVKGRFTISRDNAKNTVYLQMNRLKPEDTAFYYCNTYARYAYLTGRMDYWGQGTQVTVSS	high polyreactivity
QVQLVESGGGLVQAGGSLRLSCAASGRTFGRYAMGWYRQAPGKERELVATITSGGSTNYADSVKGRFTISRDNAKNTVYLQMNSLKPEDTAVYYCAAEFSPSRWAYSEGALRYNYWGQGTQVNVSS	low polyreactivity
QVQLVESGGGLVQAGGSLRLSCAASGFTFYINVMGWYRQATGKERELVAAITSSGTTNYADSVKGRFTISRDNAKNTVYLQMNSLKPEDTAVYYCAKRSYGGTLHYAFDSWGQGTQVTVSS	low polyreactivity
QVQLVESGGGLVQAGGSLRLSCAASGSTFENYVMGWDRQAPGKERELVAAISRGGGSTHYADSVKGRFTISRDNANNTVYLQMNSLKPEDTAVYYCAARYQPYVGSRSISTGIYYYWGQGTQVTVSS	low polyreactivity
QVQLVQSGGGLVQAGGSLRLSCAASGRTFGVYAMGWYRQAPGKERELVAAITWSGGSTYYADSVKGRFTISRDNAKNTVYLQMNSLKPEDTAVYYCAALTWLSGVKMGYWGQGTQVTVSS	high polyreactivity
QVQLVESGGGLVQAGGSLRLSCAASGSTFYGYAMGWYRQAPGKERELVAAISSNGDSTYYADSVKGRFTISRDNAKNSVYLQMNILKPEDTAVYYCATDPEGSTGGGYEFWGQGTQVTVSS	low polyreactivity
QVHLVESGGGLVQAGGSLRLSCAASGRIFWLYAMGWYRQAPGKERELVAAISSGGSTSYADSVKGRFTISRDNAKNTVYLQMNSLKPEDTAVYYCNATLLFPLLYGPESGEFDYWGQGTQVTVSS	low polyreactivity
QVQLVESAGGLVQAGGSLRLSSAASGYNFCSYAMGWYRQAPGKEREFVATISASGGRTYYADSVKGRFTISRDNAKNTVYLQMNSMKPEDTAVYYCNADPGNHAYWYYVEFYYYTYDYWGQGTQVTVSS	low polyreactivity

Sequence	polyreactivity (PSR sort gate)
QVQLVESGGGLVQAGGSLRLSCAASGRTFAYNTMGWYRQAPGKERELVAAISTSGVRTFYADSVKGRFTISRDNAKNTVYLQMNSLKPEETAVYSYDWGQGTQVTVSS	low polyreactivity
QVQLVEAGVGLVQAVGSLRLSCAASGYIFVVNAMGWYRQAPGKERELVASITWSGDNTYYADSVKGRFTISRDNAKNTVYLQMNSLKPEDTAVYYCAATIWIAYRGWYSDYNYWGQGTQVTVSS	low polyreactivity
QVQLVESGGGLVQAGGSLRLSCAASGSIFLAYPMGWYRQAPGKEREFVAAISFSDGSTYYADSVKGRFTISRDNAKNTVYLQMNSLKPEDTAVYYCNKRASPDDYDYWGQGTQVTVSS	low polyreactivity
QVQLVESGGGLVQAGGSLRLSCAASGAILDEYSMVWYRPAPGKAREFVAGIRTIGGSTYYADSVKGRFTISRENAKNTVYLQLNSLIPEDTADNYCAADGRTHEPQGWLGGYDYCGQGTQVTVSS	low polyreactivity
QVQLVESGGGLVQAGGSLRLSCAASGSTFRGYAMGWYRQAPGKERELVASISWSGGSTYYADSVKGRFTISRDNAKNTVYLQMNSLKPEDTAVYYCAARKRWRNIRMDYWGQGTQVTVSS	high polyreactivity
QVQLVESGGGLVQAGGSLRLSCAACGSIFYGNAMGWDRQAPGKVRELVAAITQGATSTYYADSVKGRFTISRDNAKNTVDLQMNSLKPEDTAVYYCAAVLAWRYTYYYWGQGTQVTVSS	high polyreactivity
QVQLVESGGGLVQAGGSLRLSCAASGRIFYANVMGWYRQAPGKEREFVSAIRWSGGRSYYADSVKGRFTISRDNAKYTVYLQMNSLKPEDTAVYYCAADGRVQSPQKFGYDYWGQGTQVTVSS	low polyreactivity
QVQLVESGGGLGQAGGSLRLSCAASGSIFPEYVMGWNRQAPGKERELVAAISWSGGSTYYADSVKGRFTISRDNAKNPVFLQMNSLKPEDTAVYYCNRVPSWRIDYDYWGQGTQVTVSS	low polyreactivity
QVQLVESGGGLVQAGGSLRLSCAASGSTFNVYGMGCYRQAPGKERELVAAINRDGITYADSVKGRFTISRDNAKNTVYLQMNSLKPEDTAVYYCAAGYSPYKGSAGYYWGQGTQVTVSS	low polyreactivity
QVQLEESGGGLVQAGGSLRLSCAASGRIFGVYAMGWYRQAPGKERELVAAISWSASSTYYADSVKGRFTISRDNAKNTVYLQMNSLKPEDTAVYYCNAEVLGFYELDYWGQGTQVTVSS	high polyreactivity
QVQLVESGGGLVQAGGSLRLSCAASGYTFAYYVMGWYRQAPGKERELVATIRSRAGRTYYADSVKERFTISRDNAKNTVYLQMNSLKPEDTAVYYCAAGWYYTYDYWGQGTQVTVSS	high polyreactivity
QVQLVESGGGLVQAGGSLRLSWAASGRIPYNAMGWYRQAPGKERELVAAISRSGTRTYYADSVKGRFTISRDNAKNTVFFQMNSLKPEDTAVYYCAAEYTRSFYIYYRFGYWVQGTQVTVSS	high polyreactivity
QVQLEESGGGLVQAGGSLRLSCAASGRTFWLYAMGRYRQAPGKEREFVASISSSGDSTYYADSVKGRFTISRDNAKNTVYLQMNSLKPEDTAVYDCAARPSRRYLRNGLDYWGQGTQVTVSS	high polyreactivity
HDQLVESGGGLVQAGGSLRLTCAASGFIFGAYTMGWYRQAPGKERELVAAISWSGDSTYYADSVKGRFTISRDNAKNTVYLQMNSLKPEDTAVYYCAAVWYWSGFDYWGQGTQVTVSS	high polyreactivity
QVQLVESGAGIVQAGGSLRLSCAASGNSYGYAMGWYRQAPGKERELVAAITSGASDTYYADSVKGRFTISRDNAKKTVYLQMNSLKPEDTAVYYCAAVDYTNRYDPYDYWGQGTQVTVSS	low polyreactivity
QVQLQESGGGLMQAGGNLRLSCAASGYISTHYDMDWYRQAPGKERELVARIDDGAITNYADSVKGRFTISRDNAKKTVYLQMNSLKPEDTAVYYCAVYYGDEYYHDYWGQGTQVTVSS	low polyreactivity
QVQLVESGGGLVQAGGSLRLSCAASGRTFNFYAMGWYRQAPGKERELVATISGGVSTYYADSVKGRFTISRDNAKNTVYLQMNSLKPEDTAVYYCAKDSGYPQWDLDYWGQGTQVTVSS	high polyreactivity
QVQLVESGGGLVQAGGSLRLICAASGRTFSFYARVWYRQAPGKETEFVAAITGSGGSTYYADSVKGRFTISRDNAKNTVYLKMNSLKPEDTAVYYCAKRSAWHTYRYGYWGQGTQVTVSS	high polyreactivity
QVQLVESGGGLVQAGGSLRLSCAASGLTFYYYAMGWYRQAPGKQRELVAAINSSGGITFYADSVKGRFTISRDNAKNTFYLQMNSLKPEDTAVYYCASGGRSNRYGYWGQGTQVTVSS	low polyreactivity
QVQLVESGAGLVQAAGSLRLSCAASGRTFSRNAMGWYRQAPGQERELVARIRSGGSTYYADSVKGRFTISRDNAKNTVYLQMNSLKPDETAVFYLAADRYGYQFDYWGQGTQVTVSS	high polyreactivity
HVQLVESGGGLVQAGGSHRLICASSGFTIYYAIAWYRQAPGKESELVASISANGGSTYYADSVKGRFTISRDNAKNTVYLQMNSLKPEDTAVYYCAARGLSGQRRYYWGQGTQVTVSS	high polyreactivity
